Assay results reported in patent US8574569B2, “Stabilized protease composition” (Trobio AB, priority 2005, dated 2013).

T1: trypsin (Bos taurus, UniProt P00760)
T1 construct: 100 μg/ml of trypsin (TPCK-treated, Sigma-Aldrich); purchased Sigma-Aldrich
T1 sequence (P00760 24-246): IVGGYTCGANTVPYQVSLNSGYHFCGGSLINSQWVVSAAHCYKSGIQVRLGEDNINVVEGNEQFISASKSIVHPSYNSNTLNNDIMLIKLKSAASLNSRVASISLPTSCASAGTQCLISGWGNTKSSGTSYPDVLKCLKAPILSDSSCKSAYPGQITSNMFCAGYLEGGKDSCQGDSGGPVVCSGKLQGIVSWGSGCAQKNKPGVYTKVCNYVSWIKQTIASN


Columns and labels:
plasmin = target: T2, plasmin (Homo sapiens, UniProt P00747); experiment: Stability of plasmin solutions (Chromozym TH chromogenic substrate, T 70%); format: physicochemical; details: 100 μg/ml plasmin in 10 mM HEPES, 0.13 M NaCl, pH 7.4, 37° C.
T2 construct: 100 μg/ml of plasmin (specific activity 3.2 units/mg, Sigma-Aldrich); purchased Sigma-Aldrich
Method: The stabilization of solutions of plasmin in accordance with the invention was tested. The activity of plasmin was determined using chromogenic peptide substrate Chromozym TH (Pentapharm, Switzerland) and measurement of absorbance change at 405 nm in a spectrophotometer. Solutions containing 100 μg/ml of plasmin (specific activity 3.2 units/mg, Sigma-Aldrich) in 10 mM HEPES and 0.13 M NaCl, pH 7.4, as well as stabilizers as indicated in Table 2 below were incubated at 37° C., and samples were taken out at various time intervals for activity determination.

trypsin = target: T1, trypsin; experiment: Stability of trypsin solutions (TAME substrate, T 70%); format: physicochemical; details: 100 μg/ml trypsin in 10 mM HEPES, 0.13 M NaCl, pH 7.4, 37° C.
Method: The stabilization of solutions of trypsin in accordance with the invention was tested. The activity of trypsin was determined using tosyl arginine methyl ester (TAME) as substrate and measuring the absorbance change at 247 nm in a spectrophotometer. Solutions containing 100 μg/ml of trypsin (TPCK-treated, Sigma-Aldrich) in 10 mM HEPES and 0.13 M NaCl, pH 7.4, as well as stabilizers as indicated in Table 3 below were incubated at 37° C., and samples were taken out at various time intervals for activity determination.

Row | Molecule | T 70% (plasmin) | T 70% (trypsin)
1 | plasmin: plasmin, specific activity 3.2 units/mg, Sigma-Aldrich, solution without additives (protein, UniProt P00747 20-580; P00747 581-810, looked up, Plasmin) Plasmin heavy chain A: EPLDDYVNTQGASLFSVTKKQLGAGSIEECAAKCEEDEEFTCRAFQYHSKEQQCVIMAENRKSSIIIRMRDVVLFEKKVYLSECKTGNGKNYRGTMSKTKNGITCQKWSSTSPHRPRFSPATHPSEGLEENYCRNPDNDPQGPWCYTTDPEKRYDYCDILECEEECMHCSGENYDGKISKTMSGLECQAWDSQSPHAHGYIPSKFPNKNLKKNYCRNPDRELRPWCFTTDPNKRWELCDIPRCTTPPPSSGPTYQCLKGTGENYRGNVAVTVSGHTCQHWSAQTPHTHNRTPENFPCKNLDENYCRNPDGKRAPWCHTTNSQVRWEYCKIPSCDSSPVSTEQLAPTAPPELTPVVQDCYHGDGQSYRGTSSTTTTGKKCQSWSSMTPHRHQKTPENYPNAGLTMNYCRNPDADKGPWCFTTDPSVRWEYCNLKKCSGTEASVVAPPPVVLLPDVETPSEEDCMFGNGKGYRGKRATTVTGTPCQDWAAQEPHRHSIFTPETNPRAGLEKNYCRNPDGDVGGPWCYTTNPRKLYDYCDVPQCAAPSFDCGKPQVEPKKCPGR Plasmin light chain B: VVGGCVAHPHSWPWQVSLRTRFGMHFCGGTLISPEWVLTAAHCLEKSPRPSSYKVILGAHQEVNLEPHVQEIEVSRLFLEPTRKDIALLKLSSPAVITDKVIPACLPSPNYVVADRTECFITGWGETQGTFGAGLLKEAQLPVIENKVCNRYEFLNGRVQSTELCAGHLAGGTDSCQGDSGGPLVCFEKDKYILQGVTSWGLGCARPNKPGVYVRVSRFVTWIEGVMRNN | 3 h | –
2 | trypsin: trypsin, TPCK-treated, Sigma-Aldrich, solution without additives (protein, UniProt P00760 24-246, looked up, TPCK-treated, trypsin, TPCK-treated, Sigma-Aldrich, solution without additives) Serine protease 1: IVGGYTCGANTVPYQVSLNSGYHFCGGSLINSQWVVSAAHCYKSGIQVRLGEDNINVVEGNEQFISASKSIVHPSYNSNTLNNDIMLIKLKSAASLNSRVASISLPTSCASAGTQCLISGWGNTKSSGTSYPDVLKCLKAPILSDSSCKSAYPGQITSNMFCAGYLEGGKDSCQGDSGGPVVCSGKLQGIVSWGSGCAQKNKPGVYTKVCNYVSWIKQTIASN | – | 0.6 h
